In article PMC11046469, “Leveraging a Phage-Encoded Noncanonical Amino Acid: A Novel Pathway to Potent and Selective Epigenetic Reader Protein Inhibitors” (ACS Central Science, 2024):
Where a SMILES comes first, the peptide text is derived from it. The star is where a group is joined. FITC = O=C1OC2(c3ccc(O)cc3Oc3cc(O)ccc32)c2ccc(NC(=S)*)cc21; Oxazole(5-CO) = O=C(c1cnco1)*; Ahx = NCCCCCC(=O)O

Experiments:
MOLM-13 cells = assay type: cell-based
Excerpt: (§1) For peptides developed for intracellular targets, a common concern is their cellular permeability to engage the targets. For the ENL YEATS domain that is a nuclear protein, its inhibitors will also need to translocate to the nucleus to exert their inhibition activities. […] We attached FITC to tENL-S1o to afford FITC-tENL-S1o that could be fluorescently imaged. […] Although results from this pilot study were very encouraging, the conjugated FITC could have assisted the cellular penetration process. A more accurate assay was needed for the use of unmodified peptides. […] There are three components required to gauge the peptide inhibitory potency for ENL expressed in cells through NanoBRET assays: (1) an ENL YEATS-NanoLuc luciferase fusion protein, (2) a NanoLuc luciferase substrate, and (3) a fluorescent tracer that binds specifically and reversibly to the reader channel of ENL YEATS. […] The cellular potency of peptides can be determined through the decrease in BRET as test peptides engage the ENL YEATS domain and displace the tracer. […]
(§2) Fluorescence microscopy study with FITC-6AHX-tENL-S1o: […]
(§3) Cell proliferation assays were performed in 96-well tissue culture plates (Corning). […] Cell numbers were determined every 3–4 days using the Countess automated cell counter (Invitrogen). […]

MV4-11 cells = assay type: cell-based
Excerpt: as §1, §2, §3

ENL YEATS (His-ENL) = biological target: T1, ENL YEATS (His-ENL) (Homo sapiens, UniProt Q03111); assay: Fluorescence polarization binding of tracer to ENL YEATS
T1 construct: (aa 1−148) was cloned in pET19b; made in house; host or cells: E. coli BL21(DE3pLysS)
T1 sequence (Q03111 1-148): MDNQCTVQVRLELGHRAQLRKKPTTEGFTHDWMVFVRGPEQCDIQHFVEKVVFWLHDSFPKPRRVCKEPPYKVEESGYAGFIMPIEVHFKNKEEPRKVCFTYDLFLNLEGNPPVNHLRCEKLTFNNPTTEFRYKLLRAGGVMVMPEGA
Experimental: Meanwhile, we established a stable cell line for NanoLuc-ENL YEATS expression. The binding of SR-0813T to […] was also validated using a fluorescence polarization assay (Figure S16).
Fluorescence Polarization:
Tracer 1 (10 nM) and varying concentrations of His-ENL (14 nM to 7.2 µM) were mixed in a 200 µL of assay buffer (50 mM HEPES, 100 mM NaCl, 0.01% Tween20, pH: 7.4). The solutions were incubated in black 96-well plates and then measured fluorescence polarization in a microplate reader at Ex/Em = 530 nm/590 nm.
NanoBRET Assay to Validate ENL Inhibitors:
HEK293T/17 cells harboring pCDH-EF1-Nluc-ENL were cultivated in growth medium overnight at 37 °C and 5% CO2. […] Following a quick spin (100 rcf, 1 min), a plate reader equipped with the LUM 610 LP 450 module was used to measure the emissions at 450 nm (donor) […]
The final BRET ratio was calculated by dividing the acceptor emission (610 nm) by the donor emission (450 nm). The BRET ratio was calculated using the following equation: […]
MOLM-13 cells were incubated with test compound (tENL-S1f at a final concentration of 10 and 50 μM) and control (DMSO at a final concentration of 0.1%) for 24 hours. […] Quantitative real-time PCR (qRT-PCR) analyses were performed in triplicate using SYBR Select Master Mix (Applied Biosystems) […]
Gene expressions were calculated following normalization to B2M levels using the comparative C t (cycle threshold) method. […]

Row | SMILES | cellular fluorescence (cell penetration) (MOLM-13 cells) | cellular fluorescence (cell penetration) (MV4-11 cells) | Kd (ENL YEATS (His-ENL)) [nM]
1 | CC(C)[C@H](NC(=O)CCCCCNC(=S)Nc1ccc2c(c1)C(=O)OC21c2ccc(O)cc2Oc2cc(O)ccc21)C(=O)N[C@@H](Cc1ccc(O)cc1)C(=O)N[C@@H](CS)C(=O)N[C@@H](Cc1ccc(O)cc1)C(=O)N[C@@H](CCCCNC(=O)c1cnco1)C(N)=O [FITC-tENL-S1o] ({FITC-Ahx}-VYCYK(Oxazole(5-CO))-NH2) | strong fluorescence within the cells | strong fluorescence within the cells | 
2 | O=C(CCC1=[N+]2C(=Cc3ccc(-c4ccc[nH]4)n3[B-]2(F)F)C=C1)NCCCC(=O)Nc1cccc(-c2cn3cc(C(=O)NC4CCC4)ccc3n2)c1 [SR-0813T] |  |  | 1100
